# Test results reported in patent publication US6624139B1, “Hypersensitive response elicitor-induced stress resistance” (Eden Bioscience Corporation, priority 1998, dated 2003).
# Values joined by “and” are separate entries in the source; they are usually repeats but may differ in a detail not shown here. Identical values can stand only once.
# What was measured:
# [1] = tested on: cotton; test: Insecticide stress tolerance of cotton (defoliation, formed cotton balls); format: in vivo
# Text: (§1) Aphids (Aphids gossypii) infect cotton during the entire growth season. The damage of aphid infection ranges from honeydew deposit that contaminates the lint and reduces crop value to defoliation that reduces or destroys crops. To protect plants from aphid infection, cotton is usually sprayed with insecticides, for example Asana XL when the infection pressure is not very high, and Admire when the infestation pressure is high. The effect of a hypersensitive response elicitor on aphids in cotton was studied by a trial involving a randomized complete block design. This involved treatment with Erwinia amylovora hypersensitive response elicitor (i.e. HP-100™) at 20, 60, and 80 ppm and a chemical insecticide, Asana XL, at 8 oz./ac. Each treatment involved foliar application beginning at cotyledon to three true leaves and thereafter at 14 day intervals using a backpack sprayer. Aphid counts and overall growth of the cotton were made immediately prior to spray application at 14, 28, 35, and 42 days after the first treatment (“DAT 1”). Twenty-five randomly selected leaves per plot were collected at the first three sampling dates and the leaves per plot at the final sampling date.
# 2. Hypersensitive response elicitor-treated cotton was more resistant to the damage caused by Pravado (Admire) and Asana. […]
# [2] = tested on: cucumber; test: Cucumber field trial under drought (survival, flowering, yield); format: in vivo; parameters: Yield/Replicate: unit not given beside the values; conditions: for Yield summed over the three replicates: control 39.3; for Yield/Replicate / kg/plant: replicates I-III; for % of the Yield Increase: versus control; for kg/plant: cucumber fruit yield
# Procedure: A cucumber field trial was set up to test the effect of Erwinia amylovora hypersensitive response elicitor on disease control, tolerance to drought stress, and yield. Three different rates were tested, there at 15, 30, and 60 μg/ml. In addition to hypersensitive response elicitor treatment, there was an untreated control. Each treatment contained three replicate plots. When the first true leaf emerges, hypersensitive response elicitor was sprayed with a back bag sprayer. The second spray was applied ten days after the first spray. The third application was right after the recovery of cucumber seedlings after the transplanting to the field. Individual treatment was randomly assigned in the field.
# When the first true leaf emerged (Day 0), a first application was sprayed. Usually cucumber seedlings are transplanted when seedlings show two true leaves. It has been known that the recovery rate after the transplanting is closely related to the size of the seedlings. Because of the drought, the seedlings were maintained in the nursery for an extra ten days and the second spray was applied on Day 10. Two days after the second spray, the plants were transplanted into fields and covered with plastic sheets. The plants had 4-5 true leaves.
# [3] = tested on: Aphids (Aphids gossypii); test: Aphid count per leaf on cotton, field trial; format: in vivo
# Text: as §1
# [4] = tested on: pepper; test: Pepper tolerance to SENCOR herbicide damage; format: in vivo
# Text: Pepper seedlings were drenched with hypersensitive response elicitor at 20 ppm seven days before transplanting, sprayed seven days after the transplanting, and then, sprayed every fourteen days. Standard chemicals, Brave, Maneb, Kocide, and Admire, were used for the rest of the treatment. […] The pepper field was applied with the herbicide SENCOR which is not labeled for pepper. This herbicide is known to cause severe foliar damage to pepper in chemically-treated plants but not with hypersensitive response elicitor-treated plants.
# The difference between the adverse effect of the herbicide on the hypersensitive response elicitor and non-hypersensitive response elicitor treated plants is dramatic. […] In contrast, 53 out of the 60 chemically-treated pepper plants had severe damage, 40-57% of the leaves were damaged, and 20 plants were dead. The ability of hypersensitive response elicitors to help crops withstand the phytotoxic effects of a herbicide is very important benefit to in agricultural industry.
# [5] = cited from earlier work
molecule,measurement,setting,value
"HP-1000: Erwinia amylovora hypersensitive response elicitor protein applied to plants by foliar spray or drench (protein, UniProt Q01099 1-403, looked up) Harpin HrpN: MSLNTSGLGASTMQISIGGAGGNNGLLGTSRQNAGLGGNSALGLGGGNQNDTVNQLAGLLTGMMMMMSMMGGGGLMGGGLGGGLGNGLGGSGGLGEGLSNALNDMLGGSLNTLGSKGGNNTTSTTNSPLDQALGINSTSQNDDSTSGTDSTSDSSDPMQQLLKMFSEIMQSLFGDGQDGTQGSSSGGKQPTEGEQNAYKKGVTDALSGLMGNGLSQLLGNGGLGGGQGGNAGTGLDGSSLGGKGLQNLSGPVDYQQLGNAVGTGIGMKAGIQALNDIGTHSDSSTRSFVNKGDRAMAKEIGQFMDQYPEVFGKPQYQKGPGQEVKTDDKSWAKALSKPDDDGMTPASMEQFNKAKGMIKSAMAGDTGNGNLQARGAGGSSLGIDAMMAGDAINNMALGKLGAA",Defoliation of cotton after second chemical spraying,"[1]; after Pravado (Admire) applied to all plots, elicitor especially at 80 ppm",no defoliation
same,No. balls/10 plants/replicate,"[1]; formed cotton balls on ten plants in each of four replicates, after insecticide stress, elicitor at 80 ppm",35
same,Yield summed over the three replicates,[2]; 15 μg/ml,103.8
same,Yield/Replicate,"[2]; 15 μg/ml, listed as HP 15",37.5 and 30.0 and 36.3
same,% of the Yield Increase,[2]; 15 μg/ml,241%
same,Yield summed over the three replicates,[2]; 30 μg/ml,133.2
same,Yield/Replicate,"[2]; 30 μg/ml, listed as HP 30",46.2 and 42.9 and 44.1
same,% of the Yield Increase,[2]; 30 μg/ml,339%
same,Final yield relative to control plants,[2]; 30 ppm,three times greater yield
same,kg/plant,"[2]; 15 μg/ml, listed as HP 15",1.25 kg/plant and 1.00 kg/plant and 1.21 kg/plant
same,kg/plant,"[2]; 30 μg/ml, listed as HP 30",1.54 kg/plant and 1.43 kg/plant and 1.47 kg/plant
same,Start of flowering earlier than untreated control,[2]; drought,14 days
same,Cucumber seedlings survived after transplanting,"[2]; drought, untreated 57%",More than 80%
same,Cucumber fruits per plant in the first harvest,"[2]; drought, virtually no fruit from untreated control",more than 0.4 kilograms
same,Number of aphids per leaf,"[3]; 20 μg/ml a.i., 1 spray, 14 DAT 1",0.2 a per leaf
same,Number of aphids per leaf,"[3]; 20 μg/ml a.i., 2 sprays, 28 DAT 1",7.8 b per leaf
same,Number of aphids per leaf,"[3]; 20 μg/ml a.i., 3 sprays, 35 DAT 1",22.9 b per leaf
same,Number of aphids per leaf,"[3]; 20 μg/ml a.i., 4 sprays, 42 DAT 1",322.1 a per leaf
same,Number of aphids per leaf,"[3]; 60 μg/ml a.i., 1 spray, 14 DAT 1",0.1 a per leaf
same,Number of aphids per leaf,"[3]; 60 μg/ml a.i., 2 sprays, 28 DAT 1",4.9 b per leaf
same,Number of aphids per leaf,"[3]; 60 μg/ml a.i., 3 sprays, 35 DAT 1",34.6 b per leaf
same,Number of aphids per leaf,"[3]; 60 μg/ml a.i., 4 sprays, 42 DAT 1",168.3 a per leaf
same,Number of aphids per leaf,"[3]; 80 μg/ml a.i., 1 spray, 14 DAT 1",0.0 a per leaf
same,Number of aphids per leaf,"[3]; 80 μg/ml a.i., 2 sprays, 28 DAT 1",2.7 b per leaf
same,Number of aphids per leaf,"[3]; 80 μg/ml a.i., 3 sprays, 35 DAT 1",25.8 b per leaf
same,Number of aphids per leaf,"[3]; 80 μg/ml a.i., 4 sprays, 42 DAT 1",510.2 a per leaf
same,Number of plants with Damage Rating 1,"[4]; 1 = No damage, 60 plants, SENCOR herbicide, elicitor 20 ppm",1
same,Number of plants with Damage Rating 2,"[4]; 2 = 0-20% leaves damaged, 60 plants, SENCOR herbicide",38
same,Number of plants with Damage Rating 3,"[4]; 3 = 20-40% leaves damaged, 60 plants, SENCOR herbicide",17
same,Number of plants with Damage Rating 4,"[4]; 4 = 40-50% leaves damaged, 60 plants, SENCOR herbicide",3
same,Number of plants with Damage Rating 6,"[4]; 6 = More than 75% leaves damaged or entire plant dead, 60 plants, SENCOR herbicide",0
same,Plants with only minor damage by the herbicide (damaged leaves less than 20%),"[4]; of 60 plants, SENCOR",Thirty-nine of the 60
same,Number of plants with Damage Rating 5,"[4]; rating 5 not defined in footnote, 60 plants, SENCOR herbicide",1
same,Damage Index %,"[4]; sum of rating times number of plants, divided by total plants times 6",41%
"hypersensitive response elicitor polypeptide or protein derived from Erwinia amylovora: hypersensitive response elicitor protein from Erwinia amylovora, amino acid sequence SEQ. ID. No. 3 (protein, listed as Erwinia amylovora) MSLNTSGLGASTMQISIGGAGGNNGLLGTSRQNAGLGGNSALGLGGGNQNDTVNQLAGLLTGMMMMMSMMGGGGLMGGGLGGGLGNGLGGSGGLGEGLSNALNDMLGGSLNTLGSKGGNNTTSTTNSPLDQALGINSTSQNDDSTSGTDSTSDSSDPMQQLLKMFSEIMQSLFGDGQDGTQGSSSGGKQPTEGEQNAYKKGVTDALSGLMGNGLSQLLGNGGLGGGQGGNAGTGLDGSSLGGKGLQNLSGPVDYQQLGNAVGTGIGMKAGIQALNDIGTHRHSSTRSFVNKGDRAMAKEIGQFMDQYPEVFGKPQYQKGPGQEVKTDDKSWAKALSKPDDDGMTPASMEQFNKAKGMIKRPMAGDTGNGNLQARGAGGSSLGIDAMMAGDAINNMALGKLGAA",Time heat stable at 100° C.,[5],at least 10 minutes
